According to US20250115677A1, “Anti-CEA Antibody Drug Conjugates and Methods of Use” (BeiGene Switzerland GmbH, priority 2022, published 2025):

Assays:
[1] = target: T1, CEACAM1 (Cat. No. 10822-H08H, Sino Biological) (Homo sapiens (Human), UniProt P13688 35-428); experiment: antigen ELISA, antigen coated at 10 ug/ml, HRP anti-human Fc
T1 construct: Bought protein
T1 sequence: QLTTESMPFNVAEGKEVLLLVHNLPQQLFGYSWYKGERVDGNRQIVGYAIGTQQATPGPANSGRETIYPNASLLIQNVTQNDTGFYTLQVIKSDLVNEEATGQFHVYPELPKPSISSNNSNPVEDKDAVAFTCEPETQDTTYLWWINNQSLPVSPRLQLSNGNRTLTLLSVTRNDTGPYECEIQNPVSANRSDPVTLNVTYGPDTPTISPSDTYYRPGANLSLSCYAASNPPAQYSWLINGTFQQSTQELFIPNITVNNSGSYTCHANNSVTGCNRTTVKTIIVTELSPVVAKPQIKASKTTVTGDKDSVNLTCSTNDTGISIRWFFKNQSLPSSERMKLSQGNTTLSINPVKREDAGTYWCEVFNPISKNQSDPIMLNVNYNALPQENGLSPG
Description: (§1) Cell fluorescence was quantified using a flow cytometer (Guava easyCyte™ 8HT, Merck-Millipore, USA). For antigen ELISA, CEACAM1(SEQ ID NO:64) (Cat. No. 10822-H08H, Sino Biological, China), CHIM (SEQ ID NO:63), CEA (SEQ ID NO:55) or CEACAM6 (SEQ ID NO:57) were coated in 96-well plates at a concentration of 10 μg/ml overnight at 4° C.

[2] = target: T2, recombinant human CEACAM6 (AA 1-320, C-terminal 6xHis) (human, UniProt P40199 35-320); experiment: as above
T2 sequence: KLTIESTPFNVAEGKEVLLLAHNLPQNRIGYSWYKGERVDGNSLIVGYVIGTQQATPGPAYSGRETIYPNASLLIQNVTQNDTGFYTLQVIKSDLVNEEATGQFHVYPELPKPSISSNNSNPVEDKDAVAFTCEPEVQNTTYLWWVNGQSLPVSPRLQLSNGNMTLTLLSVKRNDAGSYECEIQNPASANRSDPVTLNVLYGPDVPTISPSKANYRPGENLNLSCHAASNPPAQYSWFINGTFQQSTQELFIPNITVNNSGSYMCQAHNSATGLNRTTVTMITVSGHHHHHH
Description: as §1

[3] = target: T3, human CEA on cells (MKN45, LOVO, NCI-H2122, LS174T, CT26/CEA) (human, UniProt P06731 35-685); experiment: flow cytometry on MKN45 cells, BGA5384 premixed with 0.50 ug/ml recombinant soluble CEA (competitor), anti-huFc-APC
T3 construct: Full-length human CEA, endogenous on tumour cell lines or transduced; also called native CEA on living cells; huCEA surface protein
T3 sequence: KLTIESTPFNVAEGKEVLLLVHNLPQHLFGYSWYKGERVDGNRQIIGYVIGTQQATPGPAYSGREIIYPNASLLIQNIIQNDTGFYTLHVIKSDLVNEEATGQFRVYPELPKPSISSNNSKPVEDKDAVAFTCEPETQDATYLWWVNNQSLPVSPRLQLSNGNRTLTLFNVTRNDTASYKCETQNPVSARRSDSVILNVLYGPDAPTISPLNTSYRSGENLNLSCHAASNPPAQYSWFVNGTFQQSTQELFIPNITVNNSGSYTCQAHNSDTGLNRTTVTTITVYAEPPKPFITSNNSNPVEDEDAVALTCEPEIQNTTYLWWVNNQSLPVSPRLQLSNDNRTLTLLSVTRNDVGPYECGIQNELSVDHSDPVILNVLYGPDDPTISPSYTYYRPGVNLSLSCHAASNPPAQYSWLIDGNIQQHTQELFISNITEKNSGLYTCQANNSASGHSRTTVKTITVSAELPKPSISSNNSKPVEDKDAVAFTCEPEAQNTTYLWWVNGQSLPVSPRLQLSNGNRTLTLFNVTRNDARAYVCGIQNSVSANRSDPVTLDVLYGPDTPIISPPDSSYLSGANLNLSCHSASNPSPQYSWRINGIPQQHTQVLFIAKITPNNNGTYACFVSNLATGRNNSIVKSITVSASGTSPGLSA
Description: (§2) The mixtures were then incubated with 2×10^5 CEA-expressing cells, such as MKN45 cells, for 30 minutes at 4° C. The cells were stained with secondary antibody anti-huFc-APC (Cat. No. 409320, BioLegend, USA) and analyzed by flow cytometry.

[4] = target: T3, human CEA on cells (MKN45, LOVO, …); experiment: flow cytometry (MFI) on CEA-expressing MKN45 cells
Description: For flow cytometry, CEA-expressing MKN45 cells (10^5 cells/well) were incubated with various concentrations of purified affinity-matured antibodies, followed by binding with Alexa Fluor-647-labeled anti-hu IgG Fc antibody (Cat. No. 409320, BioLegend, USA). Cell fluorescence was quantified using a flow cytometer (Guava easyCyte™ 8HT, Merck-Millipore, USA).

[5] = target: T4, CEACAM6 (bar group in Fig. 9B, flow cytometry) (human, UniProt P40199); experiment: flow cytometry, Alexa Fluor 647 anti-human IgG Fc
T4 construct: on cells (flow cytometry)
T4 sequence (single chain, looked up): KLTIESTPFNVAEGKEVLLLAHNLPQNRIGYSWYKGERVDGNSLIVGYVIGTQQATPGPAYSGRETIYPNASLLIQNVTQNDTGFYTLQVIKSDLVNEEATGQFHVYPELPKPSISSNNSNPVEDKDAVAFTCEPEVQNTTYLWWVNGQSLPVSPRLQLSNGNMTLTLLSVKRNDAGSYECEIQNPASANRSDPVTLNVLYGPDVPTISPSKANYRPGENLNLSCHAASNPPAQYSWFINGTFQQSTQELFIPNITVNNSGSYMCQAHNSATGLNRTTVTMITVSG
Description: as §1

[6] = target: T3, human CEA on cells (MKN45, LOVO, …); experiment: flow cytometry on MKN45 cells, no soluble CEA, anti-huFc-APC
Description: as §2

[7] = target: T3, human CEA on cells (MKN45, LOVO, …); experiment: flow cytometry on MKN45 cells, BGA5384 premixed with 2.00 ug/ml recombinant soluble CEA (competitor), anti-huFc-APC
Description: as §2

binding result [1]: no binding
binding result [2]: no binding
EC50 (read off the curve) [3]: ~1 µg/mL
EC50 [4]: 2.92 µg/mL
binding result [5]: no binding
EC50 (read off the curve) [6]: ~0.7 µg/mL
EC50 (read off the curve) [7]: ~2 µg/mL
B1: BGA5384 (antibody, human IgG1, kappa, V domains shown)
VH: QVQLVQSGAEVKKPGASVKVSCKASGYIFTSYYLHWVRQAPGQGLEWIGYINPQTGKTSYAQKFQGRVTMTRDTSTSTVYMELSSLRSEDTAVYYCAREYGNYNYPLDYWGQGTLVTVSS
VL: DIQMTQSPSSLSASVGDRVTITCRASENQYGYLAWYQQKPGKVPKLLIYNYKNLVEGVPSRFSGSGSGTDFTLTISSLQPEDVATYYCQHHLGTPYTFGQGTKVEIKR
notes: BGA6710 with Y57K in VH; human IgG1 format; also called BGA7592-1K
